Assay results published in patent publication US20260250421A1 (BIOCYTOGEN PHARMACEUTICALS BEIJING, published 2026).
Numbering of substitutions follows the chain as printed. One block for each binder: values may come before it.

Columns and labels:
[1] = target: T1, TROP2 on NCI-H1975 and NUGC-4 tumor cells (UniProt P09758 27-323, limits assumed); test: flow cytometry on NUGC-4 cells (only TROP2 expression), anti-hIgG-Fc Alexa Fluor 647 secondary antibody, MFI [B]
T1 construct: whole, on cells; species of the lines is not worded there; also called TROP2 on cells
T1 sequence (looked up): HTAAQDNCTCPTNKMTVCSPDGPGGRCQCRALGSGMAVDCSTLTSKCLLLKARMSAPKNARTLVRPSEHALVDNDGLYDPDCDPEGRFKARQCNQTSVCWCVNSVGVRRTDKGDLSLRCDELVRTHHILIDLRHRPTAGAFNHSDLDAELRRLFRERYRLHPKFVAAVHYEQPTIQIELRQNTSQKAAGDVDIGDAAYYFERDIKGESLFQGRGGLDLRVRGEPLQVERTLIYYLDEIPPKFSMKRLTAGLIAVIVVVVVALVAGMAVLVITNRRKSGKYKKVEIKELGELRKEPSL
Method: (§1) This experiment was performed to test the binding activities of the anti-PTK7/TROP2 bispecific antibodies to different tumor cell lines. NCI-H1975 cells or NUGC-4 cells were transferred to a 96-well plate at a density of 5×10⁴ cells/well respectively. The sample antibody was added to the 96-well plate, and incubated at 4° C. for 30 min.

[2] = target: T1, TROP2 on NCI-H1975 and NUGC-4 tumor …; test: flow cytometry on NCI-H1975 cells (PTK7/TROP2 co-expression), anti-hIgG-Fc Alexa Fluor 647 secondary antibody, MFI [A]
Method: as §1

[3] = target: T2, His-tagged human TROP2 protein (human, UniProt P09758 27-274); test: SPR Biacore 8K, Ab on Protein A chip
T2 construct: Bought protein; also called hTROP2-His; ACRO Biosystems Cat# TR2-H5223; not shown: His tag
T2 sequence (looked up): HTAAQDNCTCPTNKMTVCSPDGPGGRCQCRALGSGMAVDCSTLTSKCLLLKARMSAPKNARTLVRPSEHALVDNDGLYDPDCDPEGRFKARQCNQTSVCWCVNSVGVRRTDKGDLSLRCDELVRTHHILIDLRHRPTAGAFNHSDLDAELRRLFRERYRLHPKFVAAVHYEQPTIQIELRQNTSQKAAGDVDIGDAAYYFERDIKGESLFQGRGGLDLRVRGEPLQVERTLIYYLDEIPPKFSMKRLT
Method: (§2) The affinity of the anti-TROP2 antibodies to His-tagged human TROP2 protein (hTROP2-His, ACRO Biosystems Inc., Cat #: TR2-H5223), His-tagged cynomolgus monkey TROP2 protein (cTROP2-His, ACRO Biosystems Inc., Cat #: TR2-R52H3) and His-tagged dog TROP2 protein (dTROP2-His, ACRO Biosystems Inc., Cat #: TR2-C52H4) were measured by surface plasmon resonance (SPR) using Biacore™ (Biacore, INC, Piscataway N.J.) 8K biosensor equipped with pre-immobilized Protein A sensor chips.
(§3) Purified anti-TROP2 antibodies were diluted to 1 μg/mL and then injected into the Biacore™ 8K biosensor at 10 μL/min for about 50 seconds to achieve a desired protein density (e.g., about 350 response units (RU)). The His-tagged TROP2 protein at a concentration of 200 nM was then injected at 30 μL/min for 180 seconds. Dissociation was monitored for 400 seconds. The chip was regenerated after the last injection of each titration with glycine (pH 2.0, 30 μL/min for 30 seconds).

[4] = target: T3, His-tagged monkey TROP2 protein (cynomolgus monkey; Rhesus …, UniProt A0A5F8AGB8 27-274); test: SPR Biacore 8K, Ab on Protein A chip
T3 construct: also called cTROP2-His; ACRO Biosystems Cat# TR2-R52H3
T3 sequence: T2 sequence (looked up) with M36V, S67N, I204V
Method: as §2, §3

[5] = target: T4, dog PTK7 on dog cancer cell lines (dog, UniProt A0A8I3N574 31-1070); test: flow cytometry on CMT-U27 and D-17 cells
T4 construct: whole, on cells; Endogenous protein on dog tumour cell lines; also called PTK7 on CMT-U27 and D-17 cells; dog cancer cells
T4 sequence: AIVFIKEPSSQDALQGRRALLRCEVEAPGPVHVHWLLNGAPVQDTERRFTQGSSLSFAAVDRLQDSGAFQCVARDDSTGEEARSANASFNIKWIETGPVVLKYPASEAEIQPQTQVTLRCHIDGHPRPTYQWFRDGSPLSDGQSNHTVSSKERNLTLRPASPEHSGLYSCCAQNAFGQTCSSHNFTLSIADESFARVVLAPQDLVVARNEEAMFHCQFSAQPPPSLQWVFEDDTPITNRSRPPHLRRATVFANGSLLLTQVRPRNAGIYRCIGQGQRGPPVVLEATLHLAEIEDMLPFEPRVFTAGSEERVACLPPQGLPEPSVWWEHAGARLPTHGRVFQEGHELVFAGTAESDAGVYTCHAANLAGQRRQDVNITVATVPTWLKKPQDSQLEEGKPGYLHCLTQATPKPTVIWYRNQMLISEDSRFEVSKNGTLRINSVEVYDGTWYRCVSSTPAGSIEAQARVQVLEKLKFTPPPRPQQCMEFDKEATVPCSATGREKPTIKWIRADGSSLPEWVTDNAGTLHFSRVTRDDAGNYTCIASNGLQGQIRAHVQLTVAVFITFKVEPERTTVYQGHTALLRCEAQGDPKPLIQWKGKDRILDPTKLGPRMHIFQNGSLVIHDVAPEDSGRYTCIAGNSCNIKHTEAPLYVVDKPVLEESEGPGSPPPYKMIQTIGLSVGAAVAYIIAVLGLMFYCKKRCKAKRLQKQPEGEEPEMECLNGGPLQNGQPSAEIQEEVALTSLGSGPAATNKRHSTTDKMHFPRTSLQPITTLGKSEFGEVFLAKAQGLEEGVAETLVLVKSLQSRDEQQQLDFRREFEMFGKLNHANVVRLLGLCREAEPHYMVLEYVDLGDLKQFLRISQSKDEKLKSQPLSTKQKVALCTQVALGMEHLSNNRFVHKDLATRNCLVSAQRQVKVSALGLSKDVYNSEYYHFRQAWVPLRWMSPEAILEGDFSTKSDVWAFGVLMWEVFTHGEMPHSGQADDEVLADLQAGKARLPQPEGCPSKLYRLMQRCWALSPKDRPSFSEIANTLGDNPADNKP
Method: (§4) The binding activity of anti-PTK7 antibodies to cancer cell lines was verified by flow cytometry. […] Purified anti-PTK7 antibody with a concentration of 5 μg/mL was added to each well and was incubated at 4° C. for 30 minutes. […] The cells were collected, and the mean fluorescence intensity (MFI) was determined. Human IgG1 was used as ISO control.

[6] = target: T5, His-tagged dog PTK7 protein (dog, UniProt Q13308 31-703 (human entry)); test: SPR Biacore 8K, Ab on Protein A chip
T5 construct: also called dPTK7-His
T5 chain: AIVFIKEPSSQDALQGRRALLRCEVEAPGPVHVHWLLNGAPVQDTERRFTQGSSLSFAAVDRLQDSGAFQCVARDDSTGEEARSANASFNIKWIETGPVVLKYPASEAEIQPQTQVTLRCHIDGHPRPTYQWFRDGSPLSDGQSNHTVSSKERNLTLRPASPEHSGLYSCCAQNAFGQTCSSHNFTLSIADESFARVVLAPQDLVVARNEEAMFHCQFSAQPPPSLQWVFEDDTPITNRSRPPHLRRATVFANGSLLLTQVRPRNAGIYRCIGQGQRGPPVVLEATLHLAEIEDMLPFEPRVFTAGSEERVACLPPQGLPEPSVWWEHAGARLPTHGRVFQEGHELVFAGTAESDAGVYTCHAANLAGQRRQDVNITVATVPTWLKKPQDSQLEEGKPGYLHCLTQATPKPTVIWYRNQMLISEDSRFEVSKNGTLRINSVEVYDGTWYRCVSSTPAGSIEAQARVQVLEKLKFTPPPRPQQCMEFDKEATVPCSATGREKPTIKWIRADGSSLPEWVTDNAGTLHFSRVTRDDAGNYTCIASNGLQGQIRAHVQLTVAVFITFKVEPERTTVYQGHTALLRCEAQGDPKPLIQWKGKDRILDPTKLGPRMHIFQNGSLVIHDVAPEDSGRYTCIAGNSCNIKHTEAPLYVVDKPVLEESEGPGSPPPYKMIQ
Method: as §3, with “anti-PTK7” for “anti-TROP2”, “50” for “350”, “PTK7” for “TROP2”, “200 nM or 0” for “200”

[7] = target: T4, dog PTK7 on dog cancer cell lines; test: flow cytometry, D-17 dog cells, Ab 5 ug/mL
Method: as §4

[8] = target: T4, dog PTK7 on dog cancer cell lines; test: flow cytometry, CMT-U27 dog cells, Ab 5 ug/mL
Method: as §4

EC50 (read off the curve) [1]: ~0.3 µg/mL
EC50 (read off the curve) [2]: ~0.4 µg/mL
B1: DS-1062 analog (antibody, V domains shown)
VH: QVQLVQSGAEVKKPGASVKVSCKASGYTFTTAGMQWVRQAPGQGLEWMGWINTHSGVPKYAEDFKGRVTISADTSTSTAYLQLSSLKSEDTAVYYCARSGFGSSYWYFDVWGQGTLVTVSS
VL: DIQMTQSPSSLSASVGDRVTITCKASQDVSTAVAWYQQKPGKAPKLLIYSASYRYTGVPSRFSGSGSGTDFTLTISSLQPEDFAVYYCQQHYITPLTFGQGTKLEIK
notes: The sheet names it 'DS-1062 analog' with no LALA or SI suffix, so it is kept apart from m18 (DS-1062 analog-LALA); also called antibody portion of DS-1062; copies: 2 + 2

Kd [3]: 1.24 nM
koff [3]: 0.000255 s⁻¹
kon [3]: 205000 M⁻¹ s⁻¹
Kd [4]: 1.11 nM
koff [4]: 0.000245 s⁻¹
kon [4]: 221000 M⁻¹ s⁻¹
EC50 (read off the curve) [1]: ~0.6 µg/mL
EC50 (read off the curve) [2]: ~0.7 µg/mL
B2: Sacituzumab analog (antibody, V domains shown)
VH: QVQLQQSGSELKKPGASVKVSCKASGYTFTNYGMNWVKQAPGQGLKWMGWINTYTGEPTYTDDFKGRFAFSLDTSVSTAYLQISSLKADDTAVYFCARGGFGSSYWYFDVWGQGSLVTVSS
VL: DIQLTQSPSSLSASVGDRVSITCKASQDVSIAVAWYQQKPGKAPKLLIYSASYRYTGVPDRFSGSGSGTDFTLTISSLQPEDFAVYYCQQHYITPLTFGAGTKVEIKR
notes: also called antibody portion of Sacituzumab govitecan

Kd [3]: 37 nM
koff [3]: 0.00411 s⁻¹
kon [3]: 111000 M⁻¹ s⁻¹
Kd [4]: 32.5 nM
koff [4]: 0.00409 s⁻¹
kon [4]: 126000 M⁻¹ s⁻¹
B3: DS-1062 analog-LALA (antibody, V domains shown)
VH: B1 VH
VL: B2 VL with L4M, S20T, I31T, D60S, A100Q, V104L
notes: also called DS-1062 analog with LALA mutations

Kd [3]: 7.16 nM
koff [3]: 0.00511 s⁻¹
kon [3]: 713000 M⁻¹ s⁻¹
Kd [4]: 5.41 nM
koff [4]: 0.00435 s⁻¹
kon [4]: 803000 M⁻¹ s⁻¹
B4: 18F12 (antibody, V domains shown)
VH: QLQLKESGPGLVKPSETLSLTCTVSGGSISYYYWSWIRQPPGMGLEWIGNIYYSGDTNYNPSLRSRVTISIDMSKNQFSLRLNSVTAADTAVYYCARYDMFKWNYEAFDVWGQGTMVTVSS
VL: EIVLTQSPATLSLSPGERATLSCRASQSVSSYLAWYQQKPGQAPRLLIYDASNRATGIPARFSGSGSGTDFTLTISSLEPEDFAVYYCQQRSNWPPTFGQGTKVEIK
notes: also called anti-TROP2 antibody 18F12

Kd [3]: 1.46 nM
koff [3]: 0.00117 s⁻¹
kon [3]: 798000 M⁻¹ s⁻¹
Kd [4]: 1.2 nM
koff [4]: 0.00132 s⁻¹
kon [4]: 1.1e+06 M⁻¹ s⁻¹
B5: 18E9 (antibody, V domains shown)
VH: QLQLQQSGPGLLKPSETLSLTCTVSGGSISSSYYFWGWIRQPPGKGLEWIGAIYYIGNTHYNPSLKSRVTISIDTSKNQFSLNLNSVTAADTAIYYCARYEDTWNWFDPWGQGTLVTVSS
VL: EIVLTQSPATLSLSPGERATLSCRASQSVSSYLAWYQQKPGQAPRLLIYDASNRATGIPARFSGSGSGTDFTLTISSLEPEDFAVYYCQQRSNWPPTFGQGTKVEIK
notes: also called anti-TROP2 antibody 18E9

binding result [5]: no binding (tested: 5 ug/mL)
binding result [6]: no binding (tested: 200 nM)
MFI [7]: 3690
MFI [8]: 1940
binding result [1]: no binding (tested: about 20 µg/mL)
B6: hu24 analog (antibody, IgG1, V domains shown)
VH: QVQLVQSGPEVKKPGASVKVSCKASGYTFTDYAVHWVRQAPGKRLEWIGVISTYNDYTYNNQDFKGRVTMTRDTSASTAYMELSRLRSEDTAVYYCARGNSYFYALDYWGQGTSVTVSS
VL: EIVLTQSPATLSLSPGERATLSCRASESVDSYGKSFMHWYQQKPGQAPRLLIYRASNLESGIPARFSGSGSGTDFTLTISSLEPEDFAVYYCQQSNEDPWTFGGGTKLEIK
notes: Humanized IgG1 monoclonal antibody targeting PTK7; also called positive control
